# Results as given in patent US10472401B2, “Peptides and combination of peptides for use in immunotherapy against ovarian cancer and other cancers” (immatics biotechnologies GmbH, priority 2015, dated 2019).
# Biological target: HLA-A*02:01 (Homo sapiens, UniProt P04439, D140Y/D185E/D98H/E176V/E277Q/G131W/G231S/I119V/I121R/I166T/I218V/L300P/L318F/N151K/N90K/P208A/P217A/Q86G/Q94H/R138H/R169H/T345S)
# Assay: MHC binding assay (UV-ligand exchange, ELISA of stabilized MHC complexes)
# Conditions: MHC class I binding score; binding to HLA-A*02:01 ranged by peptide exchange yield (UV-ligand exchange, ELISA)
# Method in brief: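 Binding scored as exchange yield, detected via β2m of stabilized complexes in an HRP/TMB ELISA read at 450 nm after streptavidin capture of 100-fold diluted monomers for 1 h at 37 °C. Complexes came from UV irradiation cleaving a photolabile peptide, exchanged for the candidate.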
row,Substance,Peptide exchange
1,169 (NLPEYLPFV; listed as Homo sapiens) [compound 169],″+++″ (≥50% = +++)
2,53 (KMIETDILQKV; listed as Homo sapiens) [compound 53],″++++″ (≥75% = ++++)
3,235 (YLNDLHEVLL; listed as Homo sapiens) [compound 235],″++++″ (≥75% = ++++)
4,1 (SLMEPPAVLLL; listed as Homo sapiens) [compound 1],″+++″ (≥50% = +++)
5,131 (FVPPVTVFPSL; listed as Homo sapiens) [compound 131],″++″ (≥20% = ++)
6,242 (AIAYILQGV; listed as Homo sapiens) [compound 242],″++″ (≥20% = ++)
7,214 (FLLDLDPLLL; listed as Homo sapiens) [compound 214],″+++″ (≥50% = +++)
8,250 (ALSEEGLLVYL; listed as Homo sapiens) [compound 250],″+++″ (≥50% = +++)
9,217 (ALIHPVSTV; listed as Homo sapiens) [compound 217],″++″ (≥20% = ++)
10,177 (YLLPEEYTSTL; listed as Homo sapiens) [compound 177],″++++″ (≥75% = ++++)
11,98 (LIIDQADIYL; listed as Homo sapiens) [compound 98],″+++″ (≥50% = +++)
12,20 (RMIEYFIDV; listed as Homo sapiens) [compound 20],″+++″ (≥50% = +++)
13,15 (VLLTFKIFL; listed as Homo sapiens) [compound 15],″++″ (≥20% = ++)
14,255 (VLASYNLTV; listed as Homo sapiens) [compound 255],″+++″ (≥50% = +++)
15,153 (FLIANVLYL; listed as Homo sapiens) [compound 153],″+″ (≥10% = +)
16,100 (YLLSTNAQL; listed as Homo sapiens) [compound 100],″++++″ (≥75% = ++++)
17,28 (QLLDETSAITL; listed as Homo sapiens) [compound 28],″+++″ (≥50% = +++)

row,Substance,Peptide exchange
1,40 (TLLVKVFSV; listed as Homo sapiens) [compound 40],″+++″ (≥50% = +++)
2,218 (SALEELVNV; listed as Homo sapiens) [compound 218],″++″ (≥20% = ++)
3,107 (FLQPVDDTQHL; listed as Homo sapiens) [compound 107],″+++″ (≥50% = +++)
4,76 (ILIDSIYKV; listed as Homo sapiens) [compound 76],″+++″ (≥50% = +++)
5,31 (YLAPELFVNV; listed as Homo sapiens) [compound 31],″++″ (≥20% = ++)
6,162 (YQQAQVPSV; listed as Homo sapiens) [compound 162],″+++″ (≥50% = +++)
7,184 (YLMDINGKMWL; listed as Homo sapiens) [compound 184],″+++″ (≥50% = +++)
8,9 (GAAKDLPGV; listed as Homo sapiens) [compound 9],″++″ (≥20% = ++)
9,187 (RQISIRGIVGV; listed as Homo sapiens) [compound 187],″+++″ (≥50% = +++)
10,91 (IMQDFPAEIFL; listed as Homo sapiens) [compound 91],″++++″ (≥75% = ++++)
11,210 (LLLNAVLTV; listed as Homo sapiens) [compound 210],″++″ (≥20% = ++)
12,180 (FQIDPHSGLVTV; listed as Homo sapiens) [compound 180],″++″ (≥20% = ++)
13,126 (VLAYFLPEA; listed as Homo sapiens) [compound 126],″++++″ (≥75% = ++++)
14,219 (KLSDIGITV; listed as Homo sapiens) [compound 219],″+++″ (≥50% = +++)
15,198 (KTINKVPTV; listed as Homo sapiens) [compound 198],″+++″ (≥50% = +++)
16,194 (ALPLFVITV; listed as Homo sapiens) [compound 194],″+++″ (≥50% = +++)
17,24 (SLSDGLEEV; listed as Homo sapiens) [compound 24],″++″ (≥20% = ++)

# Results, then the substance that gave them:
row,Peptide exchange,Substance
1,″++″ (≥20% = ++),400 (SLLTEQDLWTV; listed as Homo sapiens) [compound 400]
2,″+++″ (≥50% = +++),307 (ALPVSLPQI; listed as Homo sapiens) [compound 307]
3,″+++″ (≥50% = +++),469 (YLASDEITTV; listed as Homo sapiens) [compound 469]
4,″+++″ (≥50% = +++),366 (RLLDMGETDLML; listed as Homo sapiens) [compound 366]
5,″++″ (≥20% = ++),451 (LLLLDTVTMQV; listed as Homo sapiens) [compound 451]
6,″+++″ (≥50% = +++),502 (RLLAQVPGL; listed as Homo sapiens) [compound 502]
7,″+++″ (≥50% = +++),446 (QLIPALAKV; listed as Homo sapiens) [compound 446]
8,″+++″ (≥50% = +++),555 (YVLEGLKSV; listed as Homo sapiens) [compound 555]
9,″+++″ (≥50% = +++),444 (GLLRDEALAEV; listed as Homo sapiens) [compound 444]
10,″+++″ (≥50% = +++),582 (TLCDVILMV; listed as Homo sapiens) [compound 582]
11,″+++″ (≥50% = +++),529 (LLADELITV; listed as Homo sapiens) [compound 529]
12,″+++″ (≥50% = +++),610 (LLAPTPYIIGV; listed as Homo sapiens) [compound 610]
13,″+++″ (≥50% = +++),589 (KLYPQLPAEI; listed as Homo sapiens) [compound 589]
14,″+++″ (≥50% = +++),462 (KLAKQPETV; listed as Homo sapiens) [compound 462]
15,″+++″ (≥50% = +++),577 (VMFEDGVLMRL; listed as Homo sapiens) [compound 577]
16,″+++″ (≥50% = +++),317 (SLAALVVHV; listed as Homo sapiens) [compound 317]
17,″+++″ (≥50% = +++),593 (GLPRFGIEMV; listed as Homo sapiens) [compound 593]
18,″++″ (≥20% = ++),523 (YQIPRTFTL; listed as Homo sapiens) [compound 523]
19,″+++″ (≥50% = +++),312 (IISDLTIAL; listed as Homo sapiens) [compound 312]
20,″+++″ (≥50% = +++),588 (SLLPLSHLV; listed as Homo sapiens) [compound 588]
21,″+++″ (≥50% = +++),612 (YLYNEGLSV; listed as Homo sapiens) [compound 612]
22,″++″ (≥20% = ++),402 (VLFSGALLGL; listed as Homo sapiens) [compound 402]

row,Peptide exchange,Substance
1,″+++″ (≥50% = +++),437 (SMAPGLVIQAV; listed as Homo sapiens) [compound 437]
2,″+++″ (≥50% = +++),591 (SMAELDIKL; listed as Homo sapiens) [compound 591]
3,″+++″ (≥50% = +++),599 (YLLNDASLISV; listed as Homo sapiens) [compound 599]
4,″+++″ (≥50% = +++),518 (KLNAEVACV; listed as Homo sapiens) [compound 518]
5,″+++″ (≥50% = +++),521 (MLLTKLPTI; listed as Homo sapiens) [compound 521]
6,″+++″ (≥50% = +++),266 (KITDTLIHL; listed as Homo sapiens) [compound 266]
7,″++″ (≥20% = ++),405 (ALYDVFLEV; listed as Homo sapiens) [compound 405]
8,″+++″ (≥50% = +++),343 (SLLEVNEESTV; listed as Homo sapiens) [compound 343]
9,″+++″ (≥50% = +++),454 (KLPPPPPQA; listed as Homo sapiens) [compound 454]
10,″+++″ (≥50% = +++),341 (SQIALNEKLVNL; listed as Homo sapiens) [compound 341]
11,″++″ (≥20% = ++),504 (GLSDGNPSL; listed as Homo sapiens) [compound 504]
12,″+++″ (≥50% = +++),297 (VLADIELAQA; listed as Homo sapiens) [compound 297]
13,″+++″ (≥50% = +++),308 (SQYSGQLHEV; listed as Homo sapiens) [compound 308]
14,″+++″ (≥50% = +++),359 (YLLPESVDL; listed as Homo sapiens) [compound 359]
15,″+++″ (≥50% = +++),539 (ALFDAQAQV; listed as Homo sapiens) [compound 539]
16,″+++″ (≥50% = +++),272 (ALGNTVPAV; listed as Homo sapiens) [compound 272]
17,″++″ (≥20% = ++),459 (ALITEVVRL; listed as Homo sapiens) [compound 459]
18,″+++″ (≥50% = +++),519 (GLLHLTLLL; listed as Homo sapiens) [compound 519]
19,″+++″ (≥50% = +++),299 (YLLETSGNL; listed as Homo sapiens) [compound 299]
20,″+++″ (≥50% = +++),614 (LLLPDQPPYHL; listed as Homo sapiens) [compound 614]
21,″+++″ (≥50% = +++),281 (ILRESTEEL; listed as Homo sapiens) [compound 281]
22,″++++″ (≥75% = ++++),303 (AILPQLFMV; listed as Homo sapiens) [compound 303]
